The target of assay [1] is T1, recombinant DLL3 protein (purchased from ACRO, DL3-H5255) (human, UniProt Q9NYJ7 27-479).
T1 construct: Bought; also called human DLL3 protein; hDLL3
T1 sequence (looked up): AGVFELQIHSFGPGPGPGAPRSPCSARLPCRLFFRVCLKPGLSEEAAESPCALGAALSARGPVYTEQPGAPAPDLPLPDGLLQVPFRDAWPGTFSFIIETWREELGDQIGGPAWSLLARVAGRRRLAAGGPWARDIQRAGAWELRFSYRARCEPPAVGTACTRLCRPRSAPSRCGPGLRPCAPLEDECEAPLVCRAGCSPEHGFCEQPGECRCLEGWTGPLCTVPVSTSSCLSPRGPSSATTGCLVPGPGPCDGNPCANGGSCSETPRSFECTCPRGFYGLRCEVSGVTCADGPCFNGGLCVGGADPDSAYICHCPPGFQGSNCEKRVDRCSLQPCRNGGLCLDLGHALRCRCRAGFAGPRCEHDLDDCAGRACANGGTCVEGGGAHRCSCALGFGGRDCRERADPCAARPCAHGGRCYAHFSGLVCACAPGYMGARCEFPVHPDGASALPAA
Description: ELISA, plate-coated human DLL3 protein 1 µg/ml. The text has this:
Six 6-week-old SPF grade female Balb/C mice (purchased from Shanghai Jihui Laboratory Animal Care Co., Ltd.) were selected and randomly divided into two groups, A and B. They were immunized with recombinant DLL3 protein (purchased from ACRO, DL3-H5255) at two-week intervals. Freund's complete adjuvant was used for the first immunization and Freund's incomplete adjuvant was used for subsequent immunizations. On days 35 and 49, blood samples were collected from the mice via orbital bleeding, and the immune serum titers of the mice were detected using conventional methods of ELISA and Flow Cytometry (FACS). ELISA detection method: DLL3 protein was diluted with PBS to a concentration of 1 μg/ml. 100 μl/well was added to a 96-well ELISA plate and incubated overnight at 4° C. The next day, the supernatant was discarded, and each well was blocked with 200 μl of 2% milk in PBS for 2 hours. After discarding the blocking solution, the wells were washed 3 times with 200 μl of PBST (0.1% Tween20). The serum to be detected was pre-diluted 100 times as the starting concentration, followed by a 3-fold gradient dilution across 11 concentrations, with 100 μl added to each well of the ELISA plate. After incubating at room temperature for 1 hour, the supernatant was discarded and the wells were washed 5 times with 200 μl of PBST (0.1% Tween20). Then, 100 μl of HRP-labeled goat anti-mouse secondary antibody (Jackson, 1:10000) was added and incubated at room temperature for 1 hour. After discarding the supernatant, the wells were washed 7 times with 200 μl of PBST (0.1% Tween20). 100 μl of TMB chromogen solution was added to each well for 10 minutes. The reaction was terminated with 2M HCl, and absorbance value at 450 nm was read with a Microplate Reader (purchased from Biotek, Elx808).
For the hybridoma clones with good binding and internalization activities identified in Example 5, the heavy chain variable region sequences were synthesized and cloned into the pFUSEss-CHIg-hG1 vector (purchased from InvivoGen, catalog number pfusess-hchgl) comprising the amino acid sequence of the human antibody IgG1 heavy chain constant region by homologous recombination.
(ELISA stands for enzyme-linked immunosorbent assay.)

Assay [2] addresses T2, human DLL4 (purchased from Acro, DL4-H5227) (human, UniProt Q9NR61 27-524).
T2 construct: Bought; also called hDLL4
Description: ELISA, plate-coated protein 1 µg/ml. On the procedure:
The chimeric antibodies obtained in Example 6 were evaluated for their binding abilities to human DLL1 (purchased from Acro, DL1-H52H8) and DLL4 (purchased from Acro, DL4-H5227) proteins using the ELISA method. The ELISA detection method involved diluting DLL1 and DLL4 proteins with PBS to a final concentration of 1 μg/ml and coating them onto 384-well ELISA plates (purchased from Corning, 3700) at 4° C. overnight. The next day, the supernatant in the plate wells was discarded, and the wells were blocked with 80 μl of 3% milk (dissolved in PBS) for 2 hours, followed by washing three times with 80 μl of PBST (0.1% Tween20). […] After washing with 80 μl of PBST (0.1% Tween20) for five times, 25 μl of HRP-labeled goat anti-human secondary antibody (Jackson, 1:10000) was added to each well and incubated at room temperature for 1 hour, discard the supernatant, and the wells were then washed seven times with 80 μl of PBST (0.1% Tween20). After adding 25 μl of TMB chromogen solution for 10 minutes, the reaction was terminated with 2M HCl, and the absorbance value at 450 nm was measured with a Microplate reader (purchased from Biotek, Elx808). […] To assess the cross-reactivity of the antibodies with mouse and monkey DLL3, mouse DLL3-expressing plasmid pCMV3-mDLL3 (purchased from Beijing Yiqiao, MG58052-UT) and monkey DLL3-expressing plasmid pCMV3-rheDLL3 (purchased from Beijing Yiqiao, CG90919-UT) were used to construct overexpressing cell lines. The construction of overexpressing cells was as described in Examples 2-3. The binding abilities of the chimeric antibodies to these cells were determined by flow cytometry to assess the cross-reactivity of the antibodies with different species.

Assay [3] addresses T3, human DLL3, His tag (acrobiosystems, DL3-H52H4) (human, UniProt Q9NYJ7 27-492).
T3 construct: Bought; also called human DLL3 protein; free DLL3; not shown: His tag
T3 sequence (looked up): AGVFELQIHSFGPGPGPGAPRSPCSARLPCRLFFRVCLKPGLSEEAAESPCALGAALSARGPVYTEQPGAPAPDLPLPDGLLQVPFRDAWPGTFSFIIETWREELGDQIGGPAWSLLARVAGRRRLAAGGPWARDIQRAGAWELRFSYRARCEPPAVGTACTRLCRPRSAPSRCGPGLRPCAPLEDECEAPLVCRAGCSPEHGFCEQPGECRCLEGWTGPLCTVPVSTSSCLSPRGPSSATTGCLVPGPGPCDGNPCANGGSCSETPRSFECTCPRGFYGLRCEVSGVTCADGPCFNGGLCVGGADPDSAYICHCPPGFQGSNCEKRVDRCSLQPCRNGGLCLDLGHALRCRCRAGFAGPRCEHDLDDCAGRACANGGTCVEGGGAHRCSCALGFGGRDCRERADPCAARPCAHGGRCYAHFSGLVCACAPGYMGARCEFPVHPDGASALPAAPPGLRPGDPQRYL
Description: BLI (Octet 96e), antibody on sensor, DLL3-His 100-3.13 nM in solution. On the procedure: To assess the affinity of antibodies for human DLL3 protein, this study employed the BLI method to detect the binding kinetics curves of immobilized antibodies with free DLL3. The method was conducted according to the instrument's user manual (supplier: Fortebio, equipment model: Octet 96e). Briefly, AMC sensors were equilibrated for 60 s with Loading Buffer/Sample dilution buffer (1×PBS, pH7.4, with 0.1% BSA and 0.02% Tween-20) to obtain Baseline 1. The antibodies to be detected were diluted with Loading Buffer to a concentration of 10 ug/ml and bound to the equilibrated sensors, after which the sensors were re-equilibrated with Loading Buffer to obtain Baseline 2. The antibody-loaded sensors were then placed in human DLL3, His tag (supplier: acrobiosystems, catalog number: DL3-H52H4) diluted with Sample Dilution Buffer to concentrations ranging from 100 to 3.13 nM for 90 s to obtain the antibody-protein binding curve. Then, the sensors combined with antigen were placed in the Sample Dilution Buffer again and dissociated for 180 s, and the dissociation curve was obtained. The k-on and k-off values of the antibody-protein binding were calculated based on the binding and dissociation curves, and the KD values were calculated, with the results shown in Table 4.
A general note: In BLI a coated tip is dipped into the sample, and binding shifts an interference pattern.

T2 sequence (Q9NR61 27-524 limits assumed): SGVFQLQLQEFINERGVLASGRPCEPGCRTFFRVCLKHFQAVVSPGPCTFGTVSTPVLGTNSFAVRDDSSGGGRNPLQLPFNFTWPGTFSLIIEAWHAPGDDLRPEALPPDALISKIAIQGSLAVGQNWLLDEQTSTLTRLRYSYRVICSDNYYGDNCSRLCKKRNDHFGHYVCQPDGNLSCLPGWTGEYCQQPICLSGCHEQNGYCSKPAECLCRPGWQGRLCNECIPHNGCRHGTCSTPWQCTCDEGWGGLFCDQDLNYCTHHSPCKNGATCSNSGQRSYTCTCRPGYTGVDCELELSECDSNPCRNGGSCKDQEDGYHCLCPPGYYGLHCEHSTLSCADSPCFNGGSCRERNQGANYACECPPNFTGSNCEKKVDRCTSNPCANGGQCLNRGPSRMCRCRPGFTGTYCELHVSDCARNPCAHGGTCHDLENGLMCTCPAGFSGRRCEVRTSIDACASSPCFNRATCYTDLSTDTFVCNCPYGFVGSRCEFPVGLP

B1: ch4H7 (antibody, human IgG1, kappa, V domains shown)
VH: EVQLQQSGAELVRPGALVKLSCKASGFNFKDYYIHWVKQRPELGLEWIGWIDPENGNAIYDPKFQDKASITADTSSNTAYLHLSSLTSEGTAVYYCASEDAYYPFAYWGQGTLVTVSA
VL: DIVMSQSPSSLAVSVGEKVTMRCKSSQSLLYSSNQKNYLAWYQQKPGQSPKLLIYWASTRESGVPDRFTGSGSGTDFTLTISSVKAEDLAVYFCQQYYSYRTFGGGTKLEIKR
notes: Chimeric: murine variable regions on human IgG1 heavy and kappa light constant regions; also called chimeric antibody 4H7
In general, EC50 refers to the concentration needed to bring the measured effect to its halfway point. By Kd is commonly meant the free concentration of one partner at which half of the binding sites on the other are occupied at equilibrium, for simple one-to-one binding. Broadly, the koff is a measure of how fast the partners let go of each other. A high value points to fast dissociation. One may read the kon as a measure of how fast the partners come together. Low readings indicate slower complex formation, high ones faster complex formation. With B1, in assay [1], the EC50 stood at 0.0115 µg/mL. In assay [2], the binding result was “no binding (tested: up to 20 µg/ml)”. In assay [3], this molecule came in with a Kd of 0.104 nM, a koff of 0.000111 s⁻¹ and a kon of 1.07e+06 M⁻¹ s⁻¹.

For the origin of these results see patent US20250114467A1 (SHANGHAI FUDAN ZHANGJIANG BIO PHARMACEUTICAL, published 2025).
